# Results as given in US20240117030A1 (Pfizer, published 2024).
# Residue numbers refer to the chain shown, from its start. “And” between values parts separate entries of the source, which are not always exact repeats. Equal entries are not always repeated.
# T1: recombinant mouse IL-13 (mouse, UniProt P20109 26-131, limits assumed)
# T1 sequence (looked up): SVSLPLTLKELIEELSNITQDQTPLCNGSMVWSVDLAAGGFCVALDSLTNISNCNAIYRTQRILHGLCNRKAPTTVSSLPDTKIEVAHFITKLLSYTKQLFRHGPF
# T2: recombinant dog IL-13 (dog, UniProt Q9N0W9 19-131, limits assumed)
# T2 sequence (looked up): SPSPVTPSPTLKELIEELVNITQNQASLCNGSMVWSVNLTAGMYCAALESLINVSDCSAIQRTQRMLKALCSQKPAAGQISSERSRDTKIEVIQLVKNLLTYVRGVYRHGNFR
# T3: recombinant human IL-4 (human, UniProt P05112 25-153)
# T3 sequence (looked up): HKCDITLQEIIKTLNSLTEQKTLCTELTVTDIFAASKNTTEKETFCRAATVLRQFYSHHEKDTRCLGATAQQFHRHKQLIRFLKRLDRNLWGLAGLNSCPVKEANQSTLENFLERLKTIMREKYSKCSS
# T4: recombinant rat IL-4 (rat, UniProt P20096 25-147, limits assumed)
# T4 sequence (looked up): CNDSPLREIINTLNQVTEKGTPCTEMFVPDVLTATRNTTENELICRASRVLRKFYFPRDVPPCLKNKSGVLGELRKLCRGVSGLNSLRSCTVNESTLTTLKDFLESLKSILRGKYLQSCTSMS
# T5: recombinant mouse IL-4 (mouse, UniProt P07750 23-140)
# T5 sequence (looked up): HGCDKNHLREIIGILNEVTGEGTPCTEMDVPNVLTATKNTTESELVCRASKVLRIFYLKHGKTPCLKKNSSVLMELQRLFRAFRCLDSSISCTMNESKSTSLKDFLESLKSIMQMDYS
# T6: recombinant sheep IL-4 (sheep, UniProt P30368 25-135, limits assumed)
# T6 sequence (looked up): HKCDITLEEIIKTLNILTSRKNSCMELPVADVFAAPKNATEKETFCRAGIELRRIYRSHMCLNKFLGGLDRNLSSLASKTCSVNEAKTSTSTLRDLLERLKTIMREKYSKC
# T7: recombinant cynomolgus monkey IL-4 (cynomolgus monkey, UniProt P79339 25-153)
# T7 construct: also called Cyno IL-4
# T7 sequence (looked up): T3 sequence (looked up) with E26K, V29I, F33L
# T8: recombinant rabbit IL-4 (rabbit, UniProt Q9MZR8 25-147, limits assumed)
# T8 sequence (looked up): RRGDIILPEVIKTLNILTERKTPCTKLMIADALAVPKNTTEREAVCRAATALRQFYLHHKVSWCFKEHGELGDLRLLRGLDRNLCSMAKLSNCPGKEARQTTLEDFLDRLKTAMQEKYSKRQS
# T9: recombinant dog IL-4 (dog, UniProt O77762 25-132)
# T9 sequence (looked up): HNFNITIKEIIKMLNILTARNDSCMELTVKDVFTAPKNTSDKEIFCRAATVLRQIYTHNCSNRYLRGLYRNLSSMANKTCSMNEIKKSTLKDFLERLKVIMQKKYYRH
# T10: rat IL-4 (rat, UniProt P20096 25-147, limits assumed)
# T10 construct: also called rt IL-4
# T10 sequence (looked up): T4 sequence (looked up)
# T11: dog IL-4 (dog, UniProt O77762 25-132)
# T11 sequence (looked up): T9 sequence (looked up)
# T12: rabbit IL-4 (rabbit, UniProt Q9MZR8 25-147, limits assumed)
# T12 construct: also called rb IL-4
# T12 sequence (looked up): T8 sequence (looked up)
# T13: sheep IL-4 (sheep, UniProt P30368 25-135, limits assumed)
# T13 sequence (looked up): T6 sequence (looked up)
# T14: mouse IL-4 (mouse, UniProt P07750 23-140)
# T14 construct: also called mu IL-4
# T14 sequence (looked up): T5 sequence (looked up)
# T15: cynomolgus monkey IL-4 (cynomolgus monkey, UniProt P79339 25-153)
# T15 construct: mature; also called cy IL-4; cyno IL-4
# T15 sequence (looked up): T3 sequence (looked up) with E26K, V29I, F33L
# B1: IL13-0001 (antibody, human IgG1, kappa, V domains shown)
# VH: EVQLVESGGGLVQPGGSLRLSCAASGFTFSSYAMSWVRQAPGKGLEWVASISSGDTTYYPDSVKGRFTISRDNAKNSLYLQMNSLRAEDTAVYYCARNEGYYFGLTLWGQGTLVTVSS
# VL: DIQMTQSPSSLSASVGDRVTITCKASESVDHFGWSLVHWYQQKPGKAPKLLIYRASNLESGVPSRFSGSGSGTDFTLTISSLQPEDFATYYCQQSNEDPWTFGGGTKVEIKR
# notes: also called IL13433-0001; 1RVHC9-VLA4
# B2: IL4-1305 (antibody, human IgG1, kappa)
# heavy: EVTLRESGPALVKPTQTLTLTCTFSGFSLSNFGEGLSWIRQPPGKGLEWLAHIYWDDDKRYNPSLKSRLTISKDTSRNQVVLTMTNMDPVDTATYYCARRETVFYWYFDVWGRGTPVTVSSASTKGPSVFPLAPSSKSTSGGTAALGCLVKDYFPEPVTVSWNSGALTSGVHTFPAVLQSSGLYSLSSVVTVPSSSLGTQTYICNVNHKPSNTKVDKKVEPKSCDKTHTCPPCPAPEAAGAPSVFLFPPKPKDTLMISRTPEVTCVVVDVSHEDPEVKFNWYVDGVEVHNAKTKPREEQYNSTYRVVSVLTVLHQDWLNGKEYKCKVSNKALPAPIEKTISKAKGQPREPQVYTLPPSREEMTKNQVSLTCLVKGFYPSDIAVEWESNGQPENNYKTTPPVLDSDGSFFLYSKLTVDKSRWQQGNVFSCSVMHEALHNHYTQKSLSLSPGK
# light: DIQMTQSPSSLSASVGDRVTITCKASQSVDEDGDSYMNWYQQKPGKAPKLLIYAASNLESGVPSRFSGSGSGTDFTLTISSLQPEDFATYYCQQSNEDPPTFGGGTKVEIKRTVAAPSVFIFPPSDEQLKSGTASVVCLLNNFYPREAKVQWKVDNALQSGNSQESVTEQDSKDSTYSLSSTLTLSKADYEKHKVYACEVTHQGLSSPVTKSFNRGEC
# B3: IL4-1305 (antibody, IgG1)
# VH: EVTLRESGPALVKPTQTLTLTCTFSGFSLSNFGEGLSWIRQPPGKGLEWLAHIYWDDDKRYNPSLKSRLTISKDTSRNQVVLTMTNMDPVDTATYYCARRETVFYWYFDVWGRGTPVTVSS
# light: B2 light
# notes: IgG1 effector-null
# Tests used:
# recombinant human IL-13 [1] = molecular target: T16, recombinant human IL-13 (human, UniProt P35225 35-146); experiment: cell-based or functional assay
# T16 sequence (P35225 35-146 limits assumed): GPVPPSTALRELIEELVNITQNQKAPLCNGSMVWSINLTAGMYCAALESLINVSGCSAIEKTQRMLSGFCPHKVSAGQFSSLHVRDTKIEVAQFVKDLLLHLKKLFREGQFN
# native human IL-13 = native human IL-13 (human, UniProt P35225 35-146, limits assumed); experiment: cell-based or functional assay
# native human IL-13, sequence (P35225 35-146 limits assumed): as above
# recombinant human IL-13 [2] = molecular target: T16, recombinant human IL-13; experiment: cell-based or functional assay; remark: listed apart in the source
# recombinant human IL-13 [3] = molecular target: T16, recombinant human IL-13; experiment: cell-based or functional assay; remark: listed apart in the source
# recombinant human IL-13 [4] = molecular target: T16, recombinant human IL-13; experiment: cell-based or functional assay; remark: listed apart in the source
# recombinant mouse IL-13 = molecular target: T1, recombinant mouse IL-13; experiment: competition ELISA: test species IL-13 against biotinylated human IL-13 for binding to IL13-0001
# From the text: (§1) Recombinant human, mouse, rat, and dog IL 13 were purchased from R&D Systems (Minneapolis, MN). Recombinant sheep and rabbit IL-13 were produced by Pfizer Global Biotechnologies (PGBT, Cambridge, MA). Recombinant cynomolgus monkey IL 13 was purchased from Sino Biological (Beijing, China).
# recombinant dog IL-13 = molecular target: T2, recombinant dog IL-13; experiment: as above
# From the text: as §1
# [5] = molecular target: T17, recombinant cynomolgus monkey IL-13 (cynomolgus monkey, UniProt Q0PW92 19-132); experiment: as above
# T17 construct: also called Cyno IL-13
# T17 sequence (Q0PW92 entry or part of it limits assumed): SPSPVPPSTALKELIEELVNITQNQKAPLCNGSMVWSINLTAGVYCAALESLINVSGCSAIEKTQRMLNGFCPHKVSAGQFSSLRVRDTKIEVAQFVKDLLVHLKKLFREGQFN
# From the text: as §1
# recombinant human IL-4 = molecular target: T3, recombinant human IL-4; experiment: cell-based or functional assay
# recombinant rat IL-4 = molecular target: T4, recombinant rat IL-4; experiment: competition ELISA: test species IL-4 against biotinylated human IL-4 for binding to IL4-1305
# Method: (§2) Recombinant human, mouse, rat, dog, and rabbit IL 4 were purchased from R&D Systems (Minneapolis, MN). Recombinant cynomolgus monkey and sheep IL-4 were prepared by Pfizer, Cambridge, MA).
# recombinant mouse IL-4 = molecular target: T5, recombinant mouse IL-4; experiment: as above
# Method: as §2
# recombinant sheep IL-4 = molecular target: T6, recombinant sheep IL-4; experiment: as above
# Method: as §2
# [6] = molecular target: T7, recombinant cynomolgus monkey IL-4; experiment: as above
# Method: as §2
# recombinant rabbit IL-4 = molecular target: T8, recombinant rabbit IL-4; experiment: as above
# Method: as §2
# recombinant dog IL-4 = molecular target: T9, recombinant dog IL-4; experiment: as above
# Method: as §2
# rat IL-4 = molecular target: T10, rat IL-4; experiment: ELISA: competition with biotinylated human IL-4 for binding to IL4-1305
# Method: as §2
# dog IL-4 = molecular target: T11, dog IL-4; experiment: as above
# Method: as §2
# rabbit IL-4 = molecular target: T12, rabbit IL-4; experiment: as above
# Method: as §2
# sheep IL-4 = molecular target: T13, sheep IL-4; experiment: as above
# Method: as §2
# mouse IL-4 = molecular target: T14, mouse IL-4; experiment: as above
# Method: as §2
# cynomolgus monkey IL-4 = molecular target: T15, cynomolgus monkey IL-4; experiment: as above
# Method: as §2
binder,measurement,setting,value
B1,"IL-13 induced CD23 upregulation (IC50), parental IgG",recombinant human IL-13 [1],4.7 pM and 4.38 pM
same,"IC50 (median), STAT6 phosphorylation in HT-29 cells",native human IL-13,79 pM
same,"IC50 (median), Monocyte CD23 expression",recombinant human IL-13 [2],10.5 pM
same,"IC50 (median), STAT6 phosphorylation in HT-29 cells",recombinant human IL-13 [2],92 pM
same,"IC50 (median), IL-13 induced CD23 expression on human monocytes",recombinant human IL-13 [3],4.38 pM
same,"IC50 (median) for STAT6 Phosphorylation in gated B Cells, human whole blood",recombinant human IL-13 [4],66.5 pM
same,"IC50 (median) for STAT6 Phosphorylation in gated Monocytes, human whole blood",recombinant human IL-13 [4],525 pM
same,binding result,recombinant mouse IL-13,no binding
same,binding result,recombinant dog IL-13,no binding
same,binding result,[5],binds
B2,"IC50 for STAT6 Phosphorylation in gated B Cells, human whole blood",recombinant human IL-4,73 pM
same,"IC50 for STAT6 Phosphorylation in gated Monocytes, human whole blood",recombinant human IL-4,100 pM
same,"IC50 for STAT6 Phosphorylation in gated T cells, human whole blood",recombinant human IL-4,75 pM
same,binding result,recombinant rat IL-4,no binding
same,binding result,recombinant mouse IL-4,no binding
same,binding result,recombinant sheep IL-4,no binding
same,binding result,[6],binds
same,binding result,recombinant rabbit IL-4,no binding
same,binding result,recombinant dog IL-4,no binding
B3,binding result,rat IL-4,no binding
same,binding result,dog IL-4,no binding
same,binding result,rabbit IL-4,no binding
same,binding result,sheep IL-4,no binding
same,binding result,mouse IL-4,no binding
same,binding result,cynomolgus monkey IL-4,binds
